Values quoted from earlier work in paper PMC11446229.
Like-named read-outs stand apart in the source and are kept apart here.

Tests used:
[1] = target: SufS (Escherichia coli) (UniProt P77444); test: surface plasmon resonance
[2] = target: IscS (Escherichia coli) (UniProt P0A6B7)
[3] = target: SufS (Bacillus subtilis) (UniProt O32164)
[4] = target: IscS (Escherichia coli) (UniProt P0A6B7); remark: listed apart in the source

Chain of IscS (Escherichia coli) (P0A6B7 whole entry): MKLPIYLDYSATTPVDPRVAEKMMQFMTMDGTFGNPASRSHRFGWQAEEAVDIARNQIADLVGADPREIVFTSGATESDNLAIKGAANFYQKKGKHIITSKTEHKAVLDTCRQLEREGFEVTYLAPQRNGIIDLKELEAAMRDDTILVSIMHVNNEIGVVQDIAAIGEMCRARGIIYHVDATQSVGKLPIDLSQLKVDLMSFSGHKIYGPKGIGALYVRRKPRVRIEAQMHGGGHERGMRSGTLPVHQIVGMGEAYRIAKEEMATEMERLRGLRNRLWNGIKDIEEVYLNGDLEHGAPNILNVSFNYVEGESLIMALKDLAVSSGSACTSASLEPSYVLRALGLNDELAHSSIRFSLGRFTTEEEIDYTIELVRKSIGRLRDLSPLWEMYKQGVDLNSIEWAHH
Chain of SufS (Escherichia coli) (P77444 whole entry): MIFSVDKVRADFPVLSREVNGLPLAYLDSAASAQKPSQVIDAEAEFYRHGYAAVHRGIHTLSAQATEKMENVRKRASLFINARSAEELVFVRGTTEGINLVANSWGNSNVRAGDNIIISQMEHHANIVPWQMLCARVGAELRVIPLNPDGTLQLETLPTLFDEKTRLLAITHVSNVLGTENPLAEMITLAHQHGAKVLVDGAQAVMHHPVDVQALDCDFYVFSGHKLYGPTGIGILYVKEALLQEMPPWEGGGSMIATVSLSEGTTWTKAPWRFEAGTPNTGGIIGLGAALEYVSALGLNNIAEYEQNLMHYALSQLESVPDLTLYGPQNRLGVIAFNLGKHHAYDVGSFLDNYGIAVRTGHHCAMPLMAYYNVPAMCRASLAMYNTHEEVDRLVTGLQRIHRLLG
Chain of SufE (P76194 whole entry): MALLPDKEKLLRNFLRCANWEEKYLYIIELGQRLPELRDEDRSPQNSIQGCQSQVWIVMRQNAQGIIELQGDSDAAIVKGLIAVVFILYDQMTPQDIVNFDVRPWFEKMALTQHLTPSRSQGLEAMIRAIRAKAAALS
Chain of SufU (O32163 whole entry): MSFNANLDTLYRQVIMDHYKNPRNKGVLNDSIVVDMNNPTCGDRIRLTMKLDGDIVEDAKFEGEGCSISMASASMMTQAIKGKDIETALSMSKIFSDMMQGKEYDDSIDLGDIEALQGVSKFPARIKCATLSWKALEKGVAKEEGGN
Chain of SufS (Bacillus subtilis) (O32164 whole entry): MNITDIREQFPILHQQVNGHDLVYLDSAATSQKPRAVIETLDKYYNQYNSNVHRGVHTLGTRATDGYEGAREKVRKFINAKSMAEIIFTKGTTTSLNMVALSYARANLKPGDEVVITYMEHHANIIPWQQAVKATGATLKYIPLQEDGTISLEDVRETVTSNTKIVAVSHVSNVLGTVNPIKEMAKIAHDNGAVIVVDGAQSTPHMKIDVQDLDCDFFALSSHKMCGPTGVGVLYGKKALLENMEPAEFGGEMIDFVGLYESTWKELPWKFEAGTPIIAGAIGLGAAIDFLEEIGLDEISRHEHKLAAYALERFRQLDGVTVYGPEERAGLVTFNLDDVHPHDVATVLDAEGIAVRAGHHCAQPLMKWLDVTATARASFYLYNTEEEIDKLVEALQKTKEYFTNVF
Chain of CyaY (P27838 whole entry): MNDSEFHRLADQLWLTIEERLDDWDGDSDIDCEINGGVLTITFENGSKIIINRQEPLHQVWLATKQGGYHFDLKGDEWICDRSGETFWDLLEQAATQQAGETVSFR
Chain of TusA (P0A890 whole entry): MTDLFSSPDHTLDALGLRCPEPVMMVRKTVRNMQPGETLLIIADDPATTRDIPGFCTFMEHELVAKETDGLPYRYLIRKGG

SufE (from UniProt P76194)
Kd [1]: 0.36 µM

CyaY (from UniProt P27838)
Kd [2]: 23 µM

SufU (from UniProt O32163)
Kd [3]: 3 µM

TusA (from UniProt P0A890)
Kd [4]: 8 µM
